Laboratory results reported in patent publication US7442684 (TRUSTEES OF COLUMBIA UNIVERSITY IN THE CITY OF NEW YORK, dated 2008).

Molecular target: T1, human FSH receptor (human, UniProt P23945 18-695)
T1 construct: whole, on cells; Expressed in Y-1 (Y1) cells. cAMP is the read-out; also called hFSH receptor; recombinant native hFSH receptor
T1 sequence (looked up): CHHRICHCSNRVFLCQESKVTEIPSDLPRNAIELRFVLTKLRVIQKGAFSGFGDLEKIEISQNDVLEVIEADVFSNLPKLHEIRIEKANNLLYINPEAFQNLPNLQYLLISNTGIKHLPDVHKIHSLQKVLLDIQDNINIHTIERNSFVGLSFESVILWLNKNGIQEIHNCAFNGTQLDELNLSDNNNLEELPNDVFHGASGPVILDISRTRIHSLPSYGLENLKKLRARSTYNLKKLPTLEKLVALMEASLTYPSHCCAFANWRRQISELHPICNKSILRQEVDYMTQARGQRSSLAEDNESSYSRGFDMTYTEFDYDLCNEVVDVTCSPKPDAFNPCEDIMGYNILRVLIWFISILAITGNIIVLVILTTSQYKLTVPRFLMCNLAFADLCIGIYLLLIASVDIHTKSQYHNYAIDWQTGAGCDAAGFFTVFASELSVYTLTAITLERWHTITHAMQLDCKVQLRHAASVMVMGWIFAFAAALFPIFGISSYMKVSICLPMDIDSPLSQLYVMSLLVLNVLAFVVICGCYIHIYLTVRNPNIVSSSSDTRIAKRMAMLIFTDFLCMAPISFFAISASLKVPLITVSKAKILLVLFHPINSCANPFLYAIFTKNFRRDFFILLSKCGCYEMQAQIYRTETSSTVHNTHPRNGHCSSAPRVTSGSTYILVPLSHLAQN
Experiment: conclusion drawn from the cAMP assay on cells expressing the hFSH receptor; no direct binding assay
Experimental: Bioactivity of the hFSH analogues was evaluated using Y-1 cells transfected with the FSH receptor. Y-1 cell cultures were mixed with the fusion protein and native pituitary hFSH (control) at varying concentrations and media was assayed for cAMP activity as described in Bouloux et al, 2001.
Figure 8: FIG. 8: In vitro bioassay of hormone activity. cAMP concentration (fmol/ml) was quantitated in Y1 cells expressing the FSH receptor after treatment with the indicated amount of either pituitary FSH (pFSH) or the FSH analogue, β-hFSH-CTP-α-hFSH (rFSH-CTP).
The bioactivity of the β-hFSH-CTP-α analogue was first assessed by an assay of hFSH receptor activity. In this assay, a recombinant native hFSH receptor is expressed in a suitable host cell and cAMP induction is measured following incubation with hormone (Lindau-Shepard et al, 2001).

binding result: binds
B1: β-hFSH-CTP-α-hFSH fusion protein (ligand)
chain: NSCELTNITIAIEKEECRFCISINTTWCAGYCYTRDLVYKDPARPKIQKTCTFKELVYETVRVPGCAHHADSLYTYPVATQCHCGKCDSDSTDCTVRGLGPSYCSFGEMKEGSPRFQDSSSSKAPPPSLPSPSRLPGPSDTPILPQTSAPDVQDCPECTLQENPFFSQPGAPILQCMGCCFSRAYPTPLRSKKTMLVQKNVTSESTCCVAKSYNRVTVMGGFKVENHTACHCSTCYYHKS
modifications: O-linked glycosylation on serines of the CTP linker; N-linked glycosylation on the FSH subunits (sites not numbered on this entry)
notes: Secreted from CHO cells; also called β-hFSH-CTP-α analogue; rFSH-CTP
